The labels stand for the following.
B1: M14-G07-3: antibody, Vh SEQ ID NO: 131, Vl SEQ ID NO: 132 (antibody, listed as Homo Sapiens, V domains shown)
VH: EVQLLESGGGLVQPGGSLRLSCAASGFTFSSYAMSWVRQAPGKGLEWVSGISGSGGSTYYADSVKGRFTISRDNSKNTLYLQMNSLRAEDTAVYYCARQGRTSFYLDVWGQGTLVTVSS
VL: QSVLTQPPSASGTPGQRVTISCSGSSRNIGSYYVYWYQQLPGTAPKLLIYDNRQRPSGVPDRFSGSKSGTSASLAISGLRSEDEADYYCVAWDDSWSGTWVFGGGTKLTVL
B2: M14-G07-11: antibody, Vh SEQ ID NO: 147, Vl SEQ ID NO: 148 (antibody, listed as Homo Sapiens, V domains shown)
VH: B1 VH with T28R, S49G
VL: B1 VL with S31A, Y32F, T99H
B3: M14-G07-5: antibody, Vh SEQ ID NO: 135, Vl SEQ ID NO: 136 (antibody, listed as Homo Sapiens, V domains shown)
VH: B1 VH with T28R
VL: B1 VL with W96Y
B4: M14-G07-7: antibody, Vh SEQ ID NO: 139, Vl SEQ ID NO: 140 (antibody, listed as Homo Sapiens, V domains shown)
VH: B1 VH with T28R, S49G
VL: B1 VL with R53N, T99H
B5: M14-G07-4: antibody, Vh SEQ ID NO: 133, Vl SEQ ID NO: 134 (antibody, listed as Homo Sapiens, V domains shown)
VH: B1 VH with T28R, S49G
VL: B1 VL with S31A, W96Y
B6: M14-G07-8: antibody, Vh SEQ ID NO: 141, Vl SEQ ID NO: 142 (antibody, listed as Homo Sapiens, V domains shown)
VH: B1 VH with S49G
VL: B1 VL with S31A, Y32F, W96Y
B7: M14-G07-6: antibody, Vh SEQ ID NO: 137, Vl SEQ ID NO: 138 (antibody, listed as Homo Sapiens, V domains shown)
VH: B1 VH with T28R, V37I, S49G
VL: B1 VL with W96Y
B8: M14-G07-13: antibody, Vh SEQ ID NO: 151, Vl SEQ ID NO: 152 (antibody, listed as Homo Sapiens, V domains shown)
VH: B1 VH with S49G
VL: B1 VL with Y32F
B9: M14-G07-9: antibody, Vh SEQ ID NO: 143, Vl SEQ ID NO: 144 (antibody, listed as Homo Sapiens, V domains shown)
VH: B1 VH with T28R, S49G
VL: B1 VL with Y32F, R53N, D94V, W96L, T99H
B10: M14-G07-12: antibody, Vh SEQ ID NO: 149, Vl SEQ ID NO: 150 (antibody, listed as Homo Sapiens, V domains shown)
VH: B1 VH
VL: B1 VL with R53N
B11: M14-G07-14: antibody, Vh SEQ ID NO: 153, Vl SEQ ID NO: 154 (antibody, listed as Homo Sapiens, V domains shown)
VH: B1 VH with S49G
VL: B1 VL with W96Y
B12: M14-G07-10: antibody, Vh SEQ ID NO: 145, Vl SEQ ID NO: 146 (antibody, listed as Homo Sapiens, V domains shown)
VH: B1 VH with S49G
VL: B1 VL with Y32F, R53N, T99H

Substitutions are numbered along the chain they refer to.

The nature of this test: ELISA-based activity assay of antibody variants without a competition step. To be noted: Table 10, multiple substitutions within M14-G07, variant to reference ratio (reference 2-fold improved over wt). It is filed as binding. The arrangement: key: +++: Variants with an average ratio above reference plus 2×SD; +/−: variants with a ratio below reference minus 2×SD; ++: All variants with a performance in between both thresholds; −: Variants with a ratio below 0.5. How it is done: To determine the activity of the mutated antibody variants on compound from Example 1K an equilibrium or dissociation limited ELISA assay format was used. Briefly, MTP plates (Nunc Maxisorp black, 460518) were coated with 4 μg/ml streptavidin (Calbiochem, 189730) diluted in coating buffer (Candor Bioscience GmbH, 121500) and incubated over night at 4° C. After washing with PBST, plates were blocked with 100% Smart Block (Candor Bioscience GmbH, 113500) in PBST for 1 h at room temperature and the washing step was repeated. Plates were incubated with compound from Example 1K at varying concentrations (0.3-200 nM) for 1 h at 37° C., washed with PBST and antibody fragments were immobilized by adding 25 μl of the crude bacterial cultures for 1 h at room temperature. After washing with PBST a competition step or the immediate detection was performed. […] For the detection of the residually bound Fabs a HRP-coupled anti-lambda antibody (Sigma, A5175) diluted in 10% Smart Block in PBST was added for 1 h at room temperature. After washing 10 μM Amplex Red (Invitrogen, A12222) were added and incubated for 10 to 30 min at room temperature followed by measurement of the fluorescence signal.
Provided in Table 9 are several examples of single and/or double amino acid substitutions introduced into the heavy and/or the light chain of M14-G07 (wt). Performance of the variants was analyzed in quadruples in the ELISA without a competition step and the FXa deinhibition assay (FXa DIA). In the ELISA, averages were calculated and normalized to the respective average expression level. Overall performance of variants was evaluated by comparing the variant to wt ratio from 2-3 independent experiments. Variants with an average ratio above wt plus 2×SD (standard deviation of the ratio) were considered as improved and are marked with “++”, whereas variants with a ratio below wt minus 2×SD were considered as reduced in their binding affinity and are marked with “−”. All variants with a performance in between both thresholds are marked with “+/−”. Variants with average fluorescence counts below the negative control (non-expressing cells) plus 3×SD were considered as non-binding and marked with “−−” with none of the variants fulfilling this criteria. In the FXa deinhibition assay averages were calculated and overall performance of variants was evaluated by comparing the variant to wt ratio from 2-3 independent experiments. Variants with an average ratio above wt plus 2×SD were considered as improved and are marked with “++”, whereas variants with a ratio below wt minus 2×SD were considered as either reduced in their binding affinity or non-binding and are marked with “−−”. All variants with a performance in between both thresholds are marked with “+/−”. Variants not analyzed are marked with “nd” (not determined). CDRs were defined according to Kabat.
Provided in Table 10 are examples of combined amino acid substitutions within M14-G07 antibodies. While not every combination is provided in Table 10, it is contemplated that the anti-rivaroxaban antibody may comprise any combination of modifications provided. Variant performance was analyzed in quadruples in the ELISA without a competition step. Averages were calculated, average background signals determined on a streptavidin coated plate without compound from Example 1K were subtracted if the compound from Example 1K concentration used for coating was below 10 nM and signals were normalized to the respective average expression level. Overall performance of variants was evaluated by comparing the variant to reference ratio from 2-3 independent experiments using a 2-fold improved reference variant as compared to wt. Variants with an average ratio above reference plus 2×SD are marked with “+++”, whereas variants with a ratio below reference minus 2×SD are marked with “+/−”. All variants with a performance in between both thresholds are marked with “++”. […]
Take B1: the ELISA result is “+++”.
The same measure for B2: “+++”.
With B3 the entry was “+++”; with B4, “+++”; with B5, “+++”.
B6: the ELISA result was “+++”.
With B7 the entry was “+++”; with B8, “+++”.
With B9 the entry was “+++”; with B10, “+++”; with B11, “+++”.
The same measure for B12: “+++”.
